{
  "source": "patent US20030049831A1",
  "about": "(published 2003)",
  "key": {"human C5b-6 complexes [1]": {"molecular_target": "T1, human C5b-6 complexes (human, UniProt P01031 752-1676; P01031 19-673; P13671 22-934)", "T1 construct": "Complex of C5b and C6", "T1 sequence (P01031 752-1676 limits assumed, chain 1 of 3)": "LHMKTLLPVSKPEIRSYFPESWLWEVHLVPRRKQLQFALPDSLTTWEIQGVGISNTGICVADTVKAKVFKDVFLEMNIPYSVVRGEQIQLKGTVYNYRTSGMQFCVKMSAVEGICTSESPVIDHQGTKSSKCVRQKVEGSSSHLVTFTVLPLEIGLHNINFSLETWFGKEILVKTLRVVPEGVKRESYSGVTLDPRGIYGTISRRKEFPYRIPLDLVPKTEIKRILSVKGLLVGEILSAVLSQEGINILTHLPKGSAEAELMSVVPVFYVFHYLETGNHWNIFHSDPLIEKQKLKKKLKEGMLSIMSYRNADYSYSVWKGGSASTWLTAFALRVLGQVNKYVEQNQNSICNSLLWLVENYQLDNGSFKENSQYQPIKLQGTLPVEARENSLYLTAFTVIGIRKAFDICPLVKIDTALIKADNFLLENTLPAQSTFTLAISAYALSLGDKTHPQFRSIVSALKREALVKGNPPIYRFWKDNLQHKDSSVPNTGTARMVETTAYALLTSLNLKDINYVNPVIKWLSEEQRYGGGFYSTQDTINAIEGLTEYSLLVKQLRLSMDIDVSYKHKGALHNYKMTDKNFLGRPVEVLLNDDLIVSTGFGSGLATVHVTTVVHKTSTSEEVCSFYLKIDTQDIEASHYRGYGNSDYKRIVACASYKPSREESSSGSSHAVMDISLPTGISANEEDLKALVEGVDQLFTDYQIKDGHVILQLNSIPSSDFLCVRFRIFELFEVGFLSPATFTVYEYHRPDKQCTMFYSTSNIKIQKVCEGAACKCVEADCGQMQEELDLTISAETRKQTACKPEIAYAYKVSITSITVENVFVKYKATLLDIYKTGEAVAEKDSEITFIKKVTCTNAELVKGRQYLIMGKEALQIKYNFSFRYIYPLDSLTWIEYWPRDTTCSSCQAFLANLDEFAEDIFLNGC", "T1 sequence (P01031 19-673 limits assumed, chain 2 of 3)": "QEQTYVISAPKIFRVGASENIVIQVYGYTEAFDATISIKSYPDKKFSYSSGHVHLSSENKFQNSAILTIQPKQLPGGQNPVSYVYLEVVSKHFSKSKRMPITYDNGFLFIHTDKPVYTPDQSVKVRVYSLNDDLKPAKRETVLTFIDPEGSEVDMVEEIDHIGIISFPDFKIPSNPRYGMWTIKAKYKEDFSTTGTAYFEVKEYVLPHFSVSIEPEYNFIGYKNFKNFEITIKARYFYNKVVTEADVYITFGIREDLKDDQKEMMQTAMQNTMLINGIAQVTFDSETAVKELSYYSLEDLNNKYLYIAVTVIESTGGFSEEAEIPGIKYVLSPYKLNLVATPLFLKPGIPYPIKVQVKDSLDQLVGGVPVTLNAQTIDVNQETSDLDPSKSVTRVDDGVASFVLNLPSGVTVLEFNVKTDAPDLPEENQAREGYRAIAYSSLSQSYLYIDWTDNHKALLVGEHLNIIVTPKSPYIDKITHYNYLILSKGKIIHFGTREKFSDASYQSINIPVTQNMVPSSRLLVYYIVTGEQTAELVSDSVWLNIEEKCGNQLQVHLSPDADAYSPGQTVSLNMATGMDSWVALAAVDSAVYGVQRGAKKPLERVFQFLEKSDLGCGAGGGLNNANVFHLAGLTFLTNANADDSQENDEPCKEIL", "T1 sequence (P13671 22-934 limits assumed, chain 3 of 3)": "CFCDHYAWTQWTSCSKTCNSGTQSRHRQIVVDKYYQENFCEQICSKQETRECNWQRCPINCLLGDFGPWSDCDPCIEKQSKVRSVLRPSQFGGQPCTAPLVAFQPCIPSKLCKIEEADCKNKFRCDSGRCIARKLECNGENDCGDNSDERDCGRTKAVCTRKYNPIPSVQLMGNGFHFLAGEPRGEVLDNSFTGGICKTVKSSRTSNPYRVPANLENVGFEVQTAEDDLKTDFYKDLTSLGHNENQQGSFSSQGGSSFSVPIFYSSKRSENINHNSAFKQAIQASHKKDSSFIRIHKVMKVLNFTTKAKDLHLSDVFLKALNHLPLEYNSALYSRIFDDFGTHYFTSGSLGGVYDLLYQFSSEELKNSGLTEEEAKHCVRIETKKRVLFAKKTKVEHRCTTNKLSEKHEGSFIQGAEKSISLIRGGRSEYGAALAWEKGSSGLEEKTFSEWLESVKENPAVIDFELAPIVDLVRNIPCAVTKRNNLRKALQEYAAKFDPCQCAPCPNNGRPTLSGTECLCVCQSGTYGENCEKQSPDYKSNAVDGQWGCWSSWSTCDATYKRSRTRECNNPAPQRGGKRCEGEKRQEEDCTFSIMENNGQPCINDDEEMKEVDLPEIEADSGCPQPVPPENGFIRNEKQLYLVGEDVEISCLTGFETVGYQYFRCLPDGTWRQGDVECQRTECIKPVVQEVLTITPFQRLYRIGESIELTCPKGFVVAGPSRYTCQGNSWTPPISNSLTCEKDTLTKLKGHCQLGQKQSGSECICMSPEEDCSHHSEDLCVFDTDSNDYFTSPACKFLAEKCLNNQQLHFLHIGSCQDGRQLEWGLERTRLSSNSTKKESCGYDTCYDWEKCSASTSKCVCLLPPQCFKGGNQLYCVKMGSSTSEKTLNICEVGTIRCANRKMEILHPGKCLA", "experiment": "ELISA, Factor H coated at 50 to 0.4 pmol/well, C5b-6 detected with anti-C6 K1.115", "procedure": "(§1) Binding of C3b, C5b-6 and HSA to recombinant FHR-5 (panel A) or Factor H (panel B) was determined by ELISA.\n(§2) Recombinant FHR-5 or Factor H (Sigma) were serially diluted 1:2 in 0.1 M carbonate buffer, pH 9.3. Duplicate wells in microtitre plates were incubated with dilutions of FHR-5 or Factor H from 50 pmol/well to 0.4 pmol/well. The plates were blocked and wells incubated with human C3b, C5b-6 or HSA at 10 μg/well. C3b was detected by incubation with polyclonal rabbit anti-C3 antibody (1:1000 dilution) followed by peroxidase-conjugated swine anti-rabbit antibody (1:2000 dilution). C5b-6 and HSA were detected using K1.115 (anti-C6) and anti-HSA monoclonal antibodies, respectively, (1:500 dilution) followed by peroxidase-conjugated rabbit anti-mouse antibody (1:2000 dilution). The ELISAs were developed with O-phenylenediamine dihydrochloride. The reaction was stopped with 4M H₂SO₄ and the optical density of the solution was measured at a wavelength of 492 nm using a Behring EL31 microplate reader."}, "human C5b-6 complexes [2]": {"molecular_target": "T1, human C5b-6 complexes", "experiment": "ELISA, rFHR-5 coated at 50 to 0.4 pmol/well, C5b-6 detected with anti-C6 K1.115", "procedure": "as §1, §2"}, "[3]": {"molecular_target": "human serum albumin (HSA) (human, UniProt P02768 25-609)", "sequence (P02768 25-609 limits assumed)": "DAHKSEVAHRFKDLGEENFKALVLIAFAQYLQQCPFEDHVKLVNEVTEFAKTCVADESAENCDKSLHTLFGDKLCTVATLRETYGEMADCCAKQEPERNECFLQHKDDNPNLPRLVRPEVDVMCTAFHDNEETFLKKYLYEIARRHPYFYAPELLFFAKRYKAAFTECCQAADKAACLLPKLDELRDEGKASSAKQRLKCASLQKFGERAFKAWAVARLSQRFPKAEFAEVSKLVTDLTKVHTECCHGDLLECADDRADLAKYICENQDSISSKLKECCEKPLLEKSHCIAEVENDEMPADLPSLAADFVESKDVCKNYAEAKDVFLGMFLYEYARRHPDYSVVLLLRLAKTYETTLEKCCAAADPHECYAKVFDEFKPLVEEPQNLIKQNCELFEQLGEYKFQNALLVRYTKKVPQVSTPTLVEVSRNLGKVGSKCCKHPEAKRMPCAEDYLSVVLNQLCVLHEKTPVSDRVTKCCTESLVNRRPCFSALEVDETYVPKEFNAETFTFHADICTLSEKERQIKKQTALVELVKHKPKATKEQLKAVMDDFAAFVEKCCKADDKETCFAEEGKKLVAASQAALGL", "experiment": "ELISA, rFHR-5 coated at 50 to 0.4 pmol/well, HSA detected with anti-HSA monoclonal antibody", "procedure": "as §1, §2"}, "human C3b": {"molecular_target": "human C3b (human, UniProt P01024 749-1663; P01024 23-667)", "sequence (P01024 749-1663 limits assumed, chain 1 of 2)": "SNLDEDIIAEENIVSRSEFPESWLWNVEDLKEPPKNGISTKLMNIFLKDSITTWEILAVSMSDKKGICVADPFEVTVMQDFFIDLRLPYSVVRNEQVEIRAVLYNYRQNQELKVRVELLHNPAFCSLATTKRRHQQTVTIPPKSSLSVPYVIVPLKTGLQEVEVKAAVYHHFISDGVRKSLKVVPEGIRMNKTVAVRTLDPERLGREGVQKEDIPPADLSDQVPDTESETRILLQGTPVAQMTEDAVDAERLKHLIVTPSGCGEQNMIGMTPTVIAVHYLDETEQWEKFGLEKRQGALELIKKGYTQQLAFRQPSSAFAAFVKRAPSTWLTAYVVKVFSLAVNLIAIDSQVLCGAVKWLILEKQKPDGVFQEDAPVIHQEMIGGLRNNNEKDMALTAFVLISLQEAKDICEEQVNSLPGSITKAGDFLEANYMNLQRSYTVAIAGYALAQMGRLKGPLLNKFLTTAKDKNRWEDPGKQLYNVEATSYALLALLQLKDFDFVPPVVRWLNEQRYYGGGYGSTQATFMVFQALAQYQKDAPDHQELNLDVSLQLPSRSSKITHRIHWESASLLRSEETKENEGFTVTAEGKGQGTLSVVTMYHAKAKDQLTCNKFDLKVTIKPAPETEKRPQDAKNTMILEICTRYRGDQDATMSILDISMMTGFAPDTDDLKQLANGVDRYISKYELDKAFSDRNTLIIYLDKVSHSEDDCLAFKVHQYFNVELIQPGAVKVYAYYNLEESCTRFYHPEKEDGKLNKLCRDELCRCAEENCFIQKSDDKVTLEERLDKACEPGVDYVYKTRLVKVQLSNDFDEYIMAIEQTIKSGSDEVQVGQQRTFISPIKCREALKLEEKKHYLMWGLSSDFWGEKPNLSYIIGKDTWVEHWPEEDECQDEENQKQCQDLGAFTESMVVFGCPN", "sequence (P01024 23-667 limits assumed, chain 2 of 2)": "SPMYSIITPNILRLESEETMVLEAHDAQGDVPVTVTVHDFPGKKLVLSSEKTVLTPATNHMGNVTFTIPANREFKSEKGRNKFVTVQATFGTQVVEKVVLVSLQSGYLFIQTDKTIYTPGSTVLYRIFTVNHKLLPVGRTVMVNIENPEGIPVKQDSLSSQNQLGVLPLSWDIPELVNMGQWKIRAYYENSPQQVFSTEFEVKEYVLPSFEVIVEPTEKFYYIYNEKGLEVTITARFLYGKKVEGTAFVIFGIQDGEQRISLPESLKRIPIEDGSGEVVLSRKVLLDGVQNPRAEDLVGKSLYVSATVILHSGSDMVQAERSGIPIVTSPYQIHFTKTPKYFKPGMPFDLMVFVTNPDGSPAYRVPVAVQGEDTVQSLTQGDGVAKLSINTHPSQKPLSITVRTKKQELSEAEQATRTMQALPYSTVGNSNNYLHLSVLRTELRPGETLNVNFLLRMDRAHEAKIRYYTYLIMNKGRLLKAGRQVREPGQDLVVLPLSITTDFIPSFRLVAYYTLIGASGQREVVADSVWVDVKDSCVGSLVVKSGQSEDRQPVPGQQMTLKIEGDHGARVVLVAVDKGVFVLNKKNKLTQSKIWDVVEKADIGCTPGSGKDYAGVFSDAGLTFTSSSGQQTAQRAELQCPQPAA", "experiment": "ELISA, rFHR-5 coated at 50 to 0.4 pmol/well, C3b at 10 µg/well, detected with polyclonal anti-C3", "procedure": "as §1, §2"}},
  "data": [
    {"binder": "Factor H (Sigma) (other, UniProt P08603 19-1231, looked up, Bought protein; also called FH) EDCNELPPRRNTEILTGSWSDQTYPEGTQAIYKCRPGYRSLGNVIMVCRKGEWVALNPLRKCQKRPCGHPGDTPFGTFTLTGGNVFEYGVKAVYTCNEGYQLLGEINYRECDTDGWTNDIPICEVVKCLPVTAPENGKIVSSAMEPDREYHFGQAVRFVCNSGYKIEGDEEMHCSDDGFWSKEKPKCVEISCKSPDVINGSPISQKIIYKENERFQYKCNMGYEYSERGDAVCTESGWRPLPSCEEKSCDNPYIPNGDYSPLRIKHRTGDEITYQCRNGFYPATRGNTAKCTSTGWIPAPRCTLKPCDYPDIKHGGLYHENMRRPYFPVAVGKYYSYYCDEHFETPSGSYWDHIHCTQDGWSPAVPCLRKCYFPYLENGYNQNYGRKFVQGKSIDVACHPGYALPKAQTTVTCMENGWSPTPRCIRVKTCSKSSIDIENGFISESQYTYALKEKAKYQCKLGYVTADGETSGSITCGKDGWSAQPTCIKSCDIPVFMNARTKNDFTWFKLNDTLDYECHDGYESNTGSTTGSIVCGYNGWSDLPICYERECELPKIDVHLVPDRKKDQYKVGEVLKFSCKPGFTIVGPNSVQCYHFGLSPDLPICKEQVQSCGPPPELLNGNVKEKTKEEYGHSEVVEYYCNPRFLMKGPNKIQCVDGEWTTLPVCIVEESTCGDIPELEHGWAQLSSPPYYYGDSVEFNCSESFTMIGHRSITCIHGVWTQLPQCVAIDKLKKCKSSNLIILEEHLKNKKEFDHNSNIRYRCRGKEGWIHTVCINGRWDPEVNCSMAQIQLCPPPPQIPNSHNMTTTLNYRDGEKVSVLCQENYLIQEGEEITCKDGRWQSIPLCVEKIPCSQPPQIEHGTINSSRSSQESYAHGTKLSYTCEGGFRISEENETTCYMGKWSSPPQCEGLPCKSPPEISHGVVAHMSDSYQYGEEVTYKCFEGFGIDGPAIAKCLGEKWSHPPSCIKTDCLSLPSFENAIPMGEKKDVYKAGEQVTYTCATYYKMDGASNVTCINSRWTGRPTCRDTSCVNPPTVQNAYIVSRQMSKYPSGERVRYQCRSPYEMFGDEEVMCLNGNWTEPPQCKDSTGKCGPPPPIDNGDITSFPLSVYAPASSVEYQCQNLYQLEGNKRITCRNGQWSEPPKCLHPCVISREIMENYNIALRWTAKQKLYSRTGESVEFVCKRGYRLSSRSHTLRTTCWDGKLEYPTCAKR", "values": [
      {"measurement": "binding result", "setting": "human C5b-6 complexes [1]", "result": "no binding (tested: 10 µg/well)"}
    ]},
    {"binder": "recombinant FHR-5 (rFHR-5), polyhistidine-tagged, expressed in insect cells (other, Insert amplified from immediately downstream of the signal peptide-encoding region to the end of the ORF (mature FHR-5, 551 amino acids); also called His-tagged recombinant protein; not shown: 10-histidine tag coded by vector pFASTBAC1-His10+ (after a gp67 signal peptide)) EGTLCDFPKIHHGFLYDEEDYNPFSQVPTGEVFYYSCEYNFVSPSKSFWTRITCTEEGWSPTPKCLRMCSFPFVKNGHSESSGLIHLEGDTVQIICNTGYSLQNNEKNISCVERGWSTPPICSFTKGECHVPILEANVDAQPKKESYKVGDVLKFSCRKNLIRVGSDSVQCYQFGWSPNFPTCKGQVRSCGPPPQLSNGEVKEIRKEEYGHNEVVEYDCNPNFIINGPKKIQCVDGEWTTLPTCVEQVKTCGYIPELEYGYVQPSVPPYQHGVSVEVNCRNEYAMIGNNMITCINGIWTELPMCVATHQLKRCKIAGVNIKTLLKLSGKEFNHNSRIRYRCSDIFRYRHSVCINGKWNPEVDCTEKREQFCPPPPQIPNAQNMTTTVNYQDGEKVAVLCKENYLLPEAKEIVCKDGRWQSLPRCVESTAYCGPPPSINNGDTTSFPLSVYPPGSTVTYRCQSFYKLQGSVTVTCRNKQWSEPPRCLDPCVVSEENMNKNNIQLKWRNDGKLYAKTGDAVEFQCKFPHKAMISSPPFRAICQEGKFEYPICE", "values": [
      {"measurement": "binding result", "setting": "human C5b-6 complexes [2]", "result": "no binding (tested: 10 µg/well)"},
      {"measurement": "binding result", "setting": "[3]", "result": "no binding (tested: 10 µg/well)"},
      {"measurement": "binding result", "setting": "human C3b", "result": "binds"}
    ]}
  ]
}
